{"source": "patent US20200223889A1", "about": "(Novo Nordisk, published 2020)", "binders": {"B1": {"name": "Chem. 36 (peptide)", "peptide": "cyclo(CVH[dF]RWCVH[dF]RW)", "modifications": "disulfide 1-7", "SMILES": "CC(C)[C@@H]1NC(=O)[C@@H]2CSSC[C@H](NC(=O)[C@H](Cc3c[nH]c4ccccc34)NC(=O)[C@H](CCCNC(=N)N)NC(=O)[C@@H](Cc3ccccc3)NC(=O)[C@H](Cc3c[nH]cn3)NC1=O)C(=O)N[C@@H](C(C)C)C(=O)N[C@@H](Cc1c[nH]cn1)C(=O)N[C@H](Cc1ccccc1)C(=O)N[C@@H](CCCNC(=N)N)C(=O)N[C@@H](Cc1c[nH]c3ccccc13)C(=O)N2", "notes": "also called c[c[Cys-Val-His-D-Phe-Arg-Trp-Cys]-Val-His-D-Phe-Arg-Trp]"}, "B2": {"name": "Chem. 45 (peptide)", "peptide": "cyclo(CAH[dF][Cit]WCAEEEW)", "modifications": "disulfide 1-7", "SMILES": "C[C@@H]1NC(=O)[C@@H]2CSSC[C@H](NC(=O)[C@H](Cc3c[nH]c4ccccc34)NC(=O)[C@H](CCCNC(N)=O)NC(=O)[C@@H](Cc3ccccc3)NC(=O)[C@H](Cc3c[nH]cn3)NC1=O)C(=O)N[C@@H](C)C(=O)N[C@@H](CCC(=O)O)C(=O)N[C@@H](CCC(=O)O)C(=O)N[C@@H](CCC(=O)O)C(=O)N[C@@H](Cc1c[nH]c3ccccc13)C(=O)N2", "notes": "also called c[c[Cys-Ala-His-D-Phe-Cit-Trp-Cys]-Ala-Glu-Glu-Glu-Trp]"}, "B3": {"name": "Chem. 47 (peptide)", "peptide": "cyclo(C[Api]H[dF]RWC[Api]H[dF]RW)", "modifications": "disulfide 1-7", "SMILES": "N=C(N)NCCC[C@@H]1NC(=O)[C@@H](Cc2ccccc2)NC(=O)[C@H](Cc2c[nH]cn2)NC(=O)C2(CCNCC2)NC(=O)[C@@H]2CSSC[C@H](NC(=O)[C@H](Cc3c[nH]c4ccccc34)NC1=O)C(=O)NC1(CCNCC1)C(=O)N[C@@H](Cc1c[nH]cn1)C(=O)N[C@H](Cc1ccccc1)C(=O)N[C@@H](CCCNC(=N)N)C(=O)N[C@@H](Cc1c[nH]c3ccccc13)C(=O)N2", "notes": "also called c[c[Cys-ACP-His-D-Phe-Arg-Trp-Cys]-ACP-His-D-Phe-Arg-Trp]"}, "B4": {"name": "Chem. 42 (peptide)", "peptide": "CAHFXWCAHFXW", "modifications": "D-Phe 4, 10; AGP 5, 11; disulphide Cys1-Cys7; head-to-tail amide Cys1-Trp12", "notes": "also called c[c[Cys-Ala-His-D-Phe-AGP-Trp-Cys]-Ala-His-D-Phe-AGP-Trp]"}, "B5": {"name": "Chem. 40 (peptide)", "peptide": "cyclo(C[Aib]H[dF]KWC[Aib]H[dF]KW)", "modifications": "disulfide 1-7", "SMILES": "CC1(C)NC(=O)[C@@H]2CSSC[C@H](NC(=O)[C@H](Cc3c[nH]c4ccccc34)NC(=O)[C@H](CCCCN)NC(=O)[C@@H](Cc3ccccc3)NC(=O)[C@H](Cc3c[nH]cn3)NC1=O)C(=O)NC(C)(C)C(=O)N[C@@H](Cc1c[nH]cn1)C(=O)N[C@H](Cc1ccccc1)C(=O)N[C@@H](CCCCN)C(=O)N[C@@H](Cc1c[nH]c3ccccc13)C(=O)N2", "notes": "also called c[c[Cys-Aib-His-D-Phe-Lys-Trp-Cys]-Aib-His-D-Phe-Lys-Trp]"}, "B6": {"name": "Chem. 39 (peptide)", "peptide": "cyclo(C[Aib]P[dF]RWC[Aib]P[dF]RW)", "modifications": "disulfide 1-7", "SMILES": "CC1(C)NC(=O)[C@@H]2CSSC[C@H](NC(=O)[C@H](Cc3c[nH]c4ccccc34)NC(=O)[C@H](CCCNC(=N)N)NC(=O)[C@@H](Cc3ccccc3)NC(=O)[C@@H]3CCCN3C1=O)C(=O)NC(C)(C)C(=O)N1CCC[C@H]1C(=O)N[C@H](Cc1ccccc1)C(=O)N[C@@H](CCCNC(=N)N)C(=O)N[C@@H](Cc1c[nH]c3ccccc13)C(=O)N2", "notes": "also called c[c[Cys-Aib-Pro-D-Phe-Arg-Trp-Cys]-Aib-Pro-D-Phe-Arg-Trp]"}, "B7": {"name": "Chem. 4 (peptide)", "peptide": "cyclo(CH[dF]RWGCH[dF]RWG)", "modifications": "disulfide 1-7", "SMILES": "N=C(N)NCCC[C@@H]1NC(=O)[C@@H](Cc2ccccc2)NC(=O)[C@H](Cc2c[nH]cn2)NC(=O)[C@@H]2CSSC[C@H](NC(=O)CNC(=O)[C@H](Cc3c[nH]c4ccccc34)NC1=O)C(=O)N[C@@H](Cc1c[nH]cn1)C(=O)N[C@H](Cc1ccccc1)C(=O)N[C@@H](CCCNC(=N)N)C(=O)N[C@@H](Cc1c[nH]c3ccccc13)C(=O)NCC(=O)N2", "notes": "also called c[c[Cys-His-D-Phe-Arg-Trp-Gly-Cys]-His-D-Phe-Arg-Trp-Gly]"}, "B8": {"name": "Chem. 37 (peptide)", "peptide": "CAHFXWCAHFXW", "modifications": "D-Phe 4, 10; N-MeArg 5, 11; disulphide Cys1-Cys7; head-to-tail amide Cys1-Trp12", "notes": "also called c[c[Cys-Ala-His-D-Phe-N-MeArg-Trp-Cys]-Ala-His-D-Phe-N-MeArg-Trp]"}, "B9": {"name": "Chem. 48 (peptide)", "peptide": "cyclo(CAH[dF][Cit]WCAKKKW)", "modifications": "disulfide 1-7", "SMILES": "C[C@@H]1NC(=O)[C@@H]2CSSC[C@H](NC(=O)[C@H](Cc3c[nH]c4ccccc34)NC(=O)[C@H](CCCNC(N)=O)NC(=O)[C@@H](Cc3ccccc3)NC(=O)[C@H](Cc3c[nH]cn3)NC1=O)C(=O)N[C@@H](C)C(=O)N[C@@H](CCCCN)C(=O)N[C@@H](CCCCN)C(=O)N[C@@H](CCCCN)C(=O)N[C@@H](Cc1c[nH]c3ccccc13)C(=O)N2", "notes": "also called c[c[Cys-Ala-His-D-Phe-Cit-Trp-Cys]-Ala-Lys-Lys-Lys-Trp]"}, "B10": {"name": "Chem. 49 (peptide)", "peptide": "cyclo(CH[dF]RWCH[dF]RW)", "modifications": "disulfide 1-6", "SMILES": "N=C(N)NCCC[C@@H]1NC(=O)[C@@H](Cc2ccccc2)NC(=O)[C@H](Cc2c[nH]cn2)NC(=O)[C@@H]2CSSC[C@H](NC(=O)[C@H](Cc3c[nH]c4ccccc34)NC1=O)C(=O)N[C@@H](Cc1c[nH]cn1)C(=O)N[C@H](Cc1ccccc1)C(=O)N[C@@H](CCCNC(=N)N)C(=O)N[C@@H](Cc1c[nH]c3ccccc13)C(=O)N2", "notes": "also called c[c[Cys-His-D-Phe-Arg-Trp-Cys]-His-D-Phe-Arg-Trp]"}}, "key": {"[1]": {"target": "T1, human melanocortin 4 receptor (human, UniProt P32245 1-332)", "T1 sequence (P32245 whole entry)": "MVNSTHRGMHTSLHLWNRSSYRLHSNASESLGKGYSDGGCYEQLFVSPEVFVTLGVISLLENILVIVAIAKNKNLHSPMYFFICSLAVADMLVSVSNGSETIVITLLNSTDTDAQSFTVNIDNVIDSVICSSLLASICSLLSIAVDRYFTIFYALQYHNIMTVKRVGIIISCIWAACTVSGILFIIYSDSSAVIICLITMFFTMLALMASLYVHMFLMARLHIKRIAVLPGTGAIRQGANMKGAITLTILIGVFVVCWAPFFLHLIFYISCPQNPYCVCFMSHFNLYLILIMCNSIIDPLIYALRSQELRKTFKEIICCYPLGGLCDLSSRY", "assay": "cell-based or functional assay"}, "[2]": {"target": "human melanocortin 1 receptor (human, UniProt Q01726 1-317)", "sequence (Q01726 whole entry)": "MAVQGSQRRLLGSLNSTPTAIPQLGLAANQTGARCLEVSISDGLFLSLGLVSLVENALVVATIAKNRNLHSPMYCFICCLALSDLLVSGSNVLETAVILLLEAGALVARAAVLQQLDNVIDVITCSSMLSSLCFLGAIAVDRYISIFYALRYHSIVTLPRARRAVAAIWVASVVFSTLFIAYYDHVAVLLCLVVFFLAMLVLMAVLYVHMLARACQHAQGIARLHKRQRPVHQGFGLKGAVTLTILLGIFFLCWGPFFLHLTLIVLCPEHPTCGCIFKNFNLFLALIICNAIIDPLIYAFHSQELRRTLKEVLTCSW", "assay": "cell-based or functional assay"}, "[3]": {"target": "T1, human melanocortin 4 receptor", "assay": "competition with 125-NDP-α-MSH, BHK human MC4R membranes", "summary_of_the_method": "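Competition binding used membranes from BHK cells stably expressing human MC4R with ¹²⁵I-NDP-α-MSH (apx. […] final), compound at 1 μM–0.001 nM. Incubation was 2 h at 25 °C in HEPES pH 7.0 buffer with CaCl₂, MgSO₄, EGTA, Tween 20 and 0.1% HSA or ovalbumin. Filter-bound radioactivity was fitted by non-linear regression.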"}}, "note": "Positions of bridges follow the written chain, without caps; N, C: chain ends. Non-standard residues stand in square brackets, D forms with d. Cit = NC(=O)NCCC[C@H](N)C(=O)O; Api = NC1(C(=O)O)CCNCC1; Aib = CC(C)(N)C(=O)O", "data": [{"binder": "B1", "values": [{"measurement": "MC4R cAMP EC50", "setting": "[1]", "value": 0.04, "unit": "nM"}, {"measurement": "MC1R cAMP EC50", "setting": "[2]", "value": 1.05, "unit": "nM"}, {"measurement": "Ki", "setting": "[3]", "value": 0.12, "unit": "nM"}]}, {"binder": "B2", "values": [{"measurement": "MC4R cAMP EC50", "setting": "[1]", "value": 45.7, "unit": "nM"}, {"measurement": "MC1R cAMP EC50", "setting": "[2]", "value": "> 100", "unit": "nM"}, {"measurement": "Ki", "setting": "[3]", "value": 1000, "unit": "nM"}]}, {"binder": "B3", "values": [{"measurement": "MC4R cAMP EC50", "setting": "[1]", "value": 0.12, "unit": "nM"}, {"measurement": "MC1R cAMP EC50", "setting": "[2]", "value": 2.79, "unit": "nM"}, {"measurement": "Ki", "setting": "[3]", "value": 0.72, "unit": "nM"}]}, {"binder": "B4", "values": [{"measurement": "MC4R cAMP EC50", "setting": "[1]", "value": "> 1000", "unit": "nM"}, {"measurement": "MC1R cAMP EC50", "setting": "[2]", "value": "> 100", "unit": "nM"}, {"measurement": "Ki", "setting": "[3]", "value": 10000, "unit": "nM"}]}, {"binder": "B5", "values": [{"measurement": "MC4R cAMP EC50", "setting": "[1]", "value": 0.29, "unit": "nM"}, {"measurement": "MC1R cAMP EC50", "setting": "[2]", "value": 11.1, "unit": "nM"}, {"measurement": "Ki", "setting": "[3]", "value": 0.31, "unit": "nM"}]}, {"binder": "B6", "values": [{"measurement": "MC4R cAMP EC50", "setting": "[1]", "value": 1.54, "unit": "nM"}, {"measurement": "MC1R cAMP EC50", "setting": "[2]", "value": 56.4, "unit": "nM"}, {"measurement": "Ki", "setting": "[3]", "value": 1.8, "unit": "nM"}]}, {"binder": "B7", "values": [{"measurement": "MC4R cAMP EC50", "setting": "[1]", "value": 0.09, "unit": "nM"}, {"measurement": "MC1R cAMP EC50", "setting": "[2]", "value": 0.67, "unit": "nM"}, {"measurement": "Ki", "setting": "[3]", "value": 0.69, "unit": "nM"}]}, {"binder": "B8", "values": [{"measurement": "MC4R cAMP EC50", "setting": "[1]", "value": 1.57, "unit": "nM"}, {"measurement": "MC1R cAMP EC50", "setting": "[2]", "value": 13.1, "unit": "nM"}, {"measurement": "Ki", "setting": "[3]", "value": 3.31, "unit": "nM"}]}, {"binder": "B9", "values": [{"measurement": "MC4R cAMP EC50", "setting": "[1]", "value": 0.06, "unit": "nM"}, {"measurement": "MC1R cAMP EC50", "setting": "[2]", "value": 9.14, "unit": "nM"}, {"measurement": "Ki", "setting": "[3]", "value": 0.15, "unit": "nM"}]}, {"binder": "B10", "values": [{"measurement": "MC4R cAMP EC50", "setting": "[1]", "value": 1.28, "unit": "nM"}, {"measurement": "MC1R cAMP EC50", "setting": "[2]", "value": "> 5.5", "unit": "nM"}, {"measurement": "Ki", "setting": "[3]", "value": 3.92, "unit": "nM"}]}]}
